Measured values reported in IntAct's records for PubMed 15611062.

B1: Large T antigen (Simian virus 40), P03070 (parent)
chain: MDKVLNREESLQLMDLLGLERSAWGNIPLMRKAYLKKCKEFHPDKGGDEEKMKKMNTLYKKMEDGVKYAHQPDFGGFWDATEIPTYGTDEWEQWWNAFNEENLFCSEEMPSSDDEATADSQHSTPPKKKRKVEDPKDFPSELLSFLSHAVFSNRTLACFAIYTTKEKAALLYKKIMEKYSVTFISRHNSYNHNILFFLTPHRHRVSAINNYAQKLCTFSFLICKGVNKEYLMYSALTRDPFSVIEESLPGGLKEHDFNPEEAEETKQVSWKLVTEYAMETKCDDVLLLLGMYLEFQYSFEMCLKCIKKEQPSHYKYHEKHYANAAIFADSKNQKTICQQAVDTVLAKKRVDSLQLTREQMLTNRFNDLLDRMDIMFGSTGSADIEEWMAGVAWLHCLLPKMDSVVYDFLKCMVYNIPKKRYWLFKGPIDSGKTTLAAALLELCGGKALNVNLPLDRLNFELGVAIDQFLVVFEDVKGTGGESRDLPSGQGINNLDNLRDYLDGSVKVNLEKKHLNKRTQIFPPGIVTMNEYSVPKTLQARFVKQIDFRPKDYLKHCLERSEFLLEKRIIQSGIALLLMLIWYRPVAEFAQSIQSRIVEWKERLDKEFSLSVYQKMKFNVAMGIGVLDWLRNSDDDDEDSQENADKNEDGGEKNMEDSGHETGIDSQSQGSFQAPQSSQSVHDHNQPYHICRGFTCFKKPPTPPPEPET

Variants of: B1
Conditions: with fbw1b_human FBXW11, Q9UKB1
fbw1b_human FBXW11, Q9UKB1, sequence (Q9UKB1 whole entry): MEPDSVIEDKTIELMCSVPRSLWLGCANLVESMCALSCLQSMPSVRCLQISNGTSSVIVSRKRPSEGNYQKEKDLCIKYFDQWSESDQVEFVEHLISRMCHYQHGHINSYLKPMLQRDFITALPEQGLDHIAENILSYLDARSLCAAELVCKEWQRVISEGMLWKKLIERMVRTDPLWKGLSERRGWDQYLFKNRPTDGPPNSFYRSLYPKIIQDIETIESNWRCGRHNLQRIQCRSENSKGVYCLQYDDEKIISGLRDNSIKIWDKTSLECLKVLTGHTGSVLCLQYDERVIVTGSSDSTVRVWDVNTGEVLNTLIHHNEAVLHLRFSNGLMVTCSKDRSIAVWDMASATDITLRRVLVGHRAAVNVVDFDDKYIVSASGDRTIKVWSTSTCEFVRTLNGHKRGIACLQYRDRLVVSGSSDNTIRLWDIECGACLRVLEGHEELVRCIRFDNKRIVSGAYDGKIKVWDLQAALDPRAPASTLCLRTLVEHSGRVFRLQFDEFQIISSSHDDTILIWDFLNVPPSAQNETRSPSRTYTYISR

For T701A;E705A, which “effect of a mutation on the interaction” value is on record?
The value was “decreasing interaction”.

Variants of: B1
Conditions: with fbw1a_human BTRC

How did the “effect of a mutation on the interaction” value turn out when T701A;E705D was run?
Its value is “decreasing interaction”.

Variants of: B1
Conditions: with fbxw7_human FBXW7, Q969H0
fbxw7_human FBXW7, Q969H0, sequence (Q969H0 whole entry): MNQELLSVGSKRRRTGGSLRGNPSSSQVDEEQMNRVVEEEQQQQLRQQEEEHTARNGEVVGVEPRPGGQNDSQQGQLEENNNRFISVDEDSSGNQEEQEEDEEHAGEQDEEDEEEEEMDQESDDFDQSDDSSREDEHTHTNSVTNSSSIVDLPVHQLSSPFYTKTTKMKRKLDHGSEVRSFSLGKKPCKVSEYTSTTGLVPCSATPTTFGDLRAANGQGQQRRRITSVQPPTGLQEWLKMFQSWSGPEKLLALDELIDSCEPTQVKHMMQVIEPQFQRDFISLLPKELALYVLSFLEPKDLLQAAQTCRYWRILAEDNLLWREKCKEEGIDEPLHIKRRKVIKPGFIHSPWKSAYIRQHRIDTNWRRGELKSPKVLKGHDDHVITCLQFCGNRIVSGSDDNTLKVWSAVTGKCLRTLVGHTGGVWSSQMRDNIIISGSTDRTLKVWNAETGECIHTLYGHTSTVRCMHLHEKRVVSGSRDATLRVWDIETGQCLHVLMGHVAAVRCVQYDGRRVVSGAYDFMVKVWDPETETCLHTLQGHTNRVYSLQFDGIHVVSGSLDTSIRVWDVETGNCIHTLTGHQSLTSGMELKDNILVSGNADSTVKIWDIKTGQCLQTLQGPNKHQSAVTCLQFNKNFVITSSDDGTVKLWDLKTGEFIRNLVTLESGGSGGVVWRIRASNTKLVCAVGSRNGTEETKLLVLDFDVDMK

T701A was tested. Which “effect of a mutation on the interaction” value did it give?
The value was “decreasing interaction”.
